Assay results reported in publication PMC4163509 (Molecular and cellular endocrinology, 2014).

Columns and labels:
[1] = biological target: T1, Methoprene-tolerant (Met) protein, AaMet (Aedes aegypti, UniProt Q58FS0); experiment: [3H]-JH-III dextran-coated charcoal radioligand binding, Scatchard
T1 sequence (Q58FS0 1-597): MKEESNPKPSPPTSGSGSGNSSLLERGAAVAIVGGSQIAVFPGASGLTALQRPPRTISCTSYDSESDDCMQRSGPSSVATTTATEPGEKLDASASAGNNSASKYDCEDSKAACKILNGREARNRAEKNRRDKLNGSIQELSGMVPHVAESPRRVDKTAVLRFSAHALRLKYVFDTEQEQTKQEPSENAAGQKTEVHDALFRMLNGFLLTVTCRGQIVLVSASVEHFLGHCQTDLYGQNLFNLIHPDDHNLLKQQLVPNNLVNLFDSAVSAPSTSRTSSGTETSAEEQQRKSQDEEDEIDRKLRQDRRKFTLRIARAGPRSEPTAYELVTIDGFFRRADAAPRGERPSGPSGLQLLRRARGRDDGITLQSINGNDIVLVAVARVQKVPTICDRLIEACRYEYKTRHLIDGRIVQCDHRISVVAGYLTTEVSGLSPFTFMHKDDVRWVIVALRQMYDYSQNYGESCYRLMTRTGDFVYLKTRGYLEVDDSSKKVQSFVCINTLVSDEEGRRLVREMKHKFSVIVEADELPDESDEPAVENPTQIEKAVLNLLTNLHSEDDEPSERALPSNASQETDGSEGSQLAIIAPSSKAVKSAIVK

[2] = biological target: bHLH-PAS domain of AaMet fused to the GAL4 DNA-binding domain (Aedes aegypti) (UniProt Q58FS0); experiment: two-hybrid
[3] = biological target: T2, GST-AaMet (bHLH-PAS) (Aedes aegypti, UniProt Q58FS0 1-597); experiment: EMSA
T2 sequence: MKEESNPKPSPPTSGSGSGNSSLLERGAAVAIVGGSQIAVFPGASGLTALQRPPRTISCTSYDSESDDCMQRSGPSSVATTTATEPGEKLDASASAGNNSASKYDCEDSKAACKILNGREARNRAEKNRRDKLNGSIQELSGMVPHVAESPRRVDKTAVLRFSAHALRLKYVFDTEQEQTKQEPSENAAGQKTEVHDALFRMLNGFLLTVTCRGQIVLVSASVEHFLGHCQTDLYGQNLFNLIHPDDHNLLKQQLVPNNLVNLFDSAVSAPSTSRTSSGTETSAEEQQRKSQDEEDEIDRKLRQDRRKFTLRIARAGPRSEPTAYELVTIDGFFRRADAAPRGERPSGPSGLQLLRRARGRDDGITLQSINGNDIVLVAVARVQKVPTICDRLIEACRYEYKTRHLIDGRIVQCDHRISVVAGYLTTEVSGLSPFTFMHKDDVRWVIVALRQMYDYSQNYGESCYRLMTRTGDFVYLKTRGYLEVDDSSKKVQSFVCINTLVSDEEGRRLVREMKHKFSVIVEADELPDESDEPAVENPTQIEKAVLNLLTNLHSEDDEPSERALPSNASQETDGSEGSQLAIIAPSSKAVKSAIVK

COC(=O)/C=C(\C)CC/C=C(\C)CC[C@H]1OC1(C)C [JH-III]
Kd [1]: 4.4 ± 1.9 nM

bHLH-PAS domain of AaFISC fused to the activation domain of GAL4 (domain or fragment)
fold enhancement of two-hybrid reporter activation with JH-III [2]: > 20 fold

B1: AaET_JHRE1 (dsDNA)
DNA 1: CCATCCCACACGCGAAGACGATAAAACCA
DNA 2: TGGTTTTATCGTCTTCGCGTGTGGGATGG
binding result [3]: no binding
